Test results from publication PMC3378326.

How the values were obtained:
FGF1 = FGF1 (UniProt P05230); assay: SPR
FGF8b = assay: SPR

Chain of FGF1 (P05230 whole entry): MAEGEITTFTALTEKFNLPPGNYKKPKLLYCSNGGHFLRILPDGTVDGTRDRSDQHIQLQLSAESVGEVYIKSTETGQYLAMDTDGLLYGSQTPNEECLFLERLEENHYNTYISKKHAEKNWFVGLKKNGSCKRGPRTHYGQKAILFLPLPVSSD

| Kd (FGF1) [nM] | Kd (FGF8b) [nM] | Substance |
| --- | --- | --- |
| 310 | 367 | D1-D2-D3^ΔAB/linker (FGFR3c), naturally occurring isoform of FGFR3c lacking the AB/linker (domain or fragment) |
| – | 888 | D1-AB-D2-D3 (FGFR3c), full-length FGFR3c ectodomain (from UniProt P22607 23-375) (domain or fragment) |
